Patent US20190161551A1 (Regeneron, published 2019)

Assays:
[1] = molecular target: human TrkB expressed on HEK293/SRE-Luc/hTrkB cells (human, UniProt Q16620 32-822); test: cell-based or functional assay
[2] = molecular target: mouse TrkB extracellular domain fused to the transmembrane and cytoplasmic domains of human TrkB, expressed … (mouse; human, UniProt Q16620 431-822, limits assumed); test: cell-based or functional assay
[3] = molecular target: T1, mouse TrkB extracellular domain expressed with a C-terminal myc-myc-hexahistidine tag (mouse, UniProt P15209 32-429); test: SPR, mAb captured (anti-hFc), 37C
T1 construct: also called mTrkB.mmH; mTRKB.mmH
Description: (§1) Equilibrium dissociation constants (KD values) for TrkB binding to purified anti-TrkB monoclonal antibodies were determined using a real-time surface plasmon resonance biosensor using a Biacore 4000 instrument. All binding studies were performed in 10 mM Hepes pH 7.4, 150 mM NaCl, 3 mM EDTA, and 0.05% v/v Surfactant Tween-20 (HBS-ET running buffer) at 25° C. and 37° C. […] Binding studies were performed on following TrkB reagents; human TrkB extracellular domain expressed with a C-terminal myc-myc-hexahistidine tag (hTRKB.mmH; SEQ ID NO: 76; Accession number NP_001018074.1), mouse TrkB extracellular domain expressed with a C-terminal myc-myc-hexahistidine tag (mTRKB.mmH; SEQ ID NO: 79; Accession number NP_001020245), rat TrkB extracellular domain expressed with a C-terminal myc-myc-hexahistidine tag (rTRKB.mmH; SEQ ID NO: 84; Accession number NP_036863.1), and human TrkB extracellular domain expressed with a C-terminal mouse IgG2a Fc tag (hTrkB-mFc; SEQ ID NO: 77; Accession number NP_001018074.1). […] Kinetic association (kₐ) and dissociation (kd) rate constants were determined by fitting the real-time binding sensorgrams to a 1:1 binding model with mass transport limitation using Scrubber 2.0c curve-fitting software. Binding dissociation equilibrium constants (KD) and dissociative half-lives (t½) were calculated from the kinetic rate constants as: […]

[4] = molecular target: T2, rat TrkB extracellular domain expressed with a C-terminal myc-myc-hexahistidine tag (rat, UniProt Q63604 32-429); test: SPR, mAb captured (anti-hFc), 37C
T2 construct: also called rTrkB.mmH; rTRKB.mmH
Description: as §1

[5] = molecular target: T3, human TrkB extracellular domain expressed with a C-terminal myc-myc-hexahistidine tag (human, UniProt Q16620 32-430); test: SPR, mAb captured (anti-hFc), 37C
T3 construct: also called hTrkB.mmH; hTRKB.mmH
Description: as §1

[6] = molecular target: T4, human TrkB extracellular domain expressed with a C-terminal mouse IgG2a Fc tag (human); test: SPR, mAb captured (anti-hFc), 37C
T4 construct: also called hTrkB-mFc; hTrkB.mFc
Description: as §1

[7] = molecular target: T5, human TrkB extracellular domain (aa Cys32-His430) expressed with the Fc portion of human IgG1 at the … (human); test: competition ELISA, 500 pM hTrkB-hFc pre-mixed with mAb, plate-coated hNT-4
T5 construct: also called hTrkB-hFc; hTrkB.hFc
Description: Experiments were carried out using the following procedure. Human BDNF or NT-4 were separately coated at a concentration of 0.5 μg/mL or 2 μg/mL, respectively, in PBS on a 96-well microtiter plate overnight at 4° C. […] Blocking solution and dilution buffer contained 5% (w/v) solution of BSA in PBS for assay with BDNF coat, or 0.5% (w/v) solution of BSA in PBS for assay with NT-4 coat. On separate microtiter plates, a constant amount of 500 pM of hTrkB-hFc protein was added to serial dilutions of antibodies with final concentrations ranging from 1.7 pM to 100 nM, and solutions with no antibody present. (The constant concentration of hTrkB-hFc for antibody inhibition assays was selected from the approximate midway point within the linear portion of individual binding curves of hTrkB-hFc to plate-coated hBDNF or hNT-4). After one hour incubation at room temperature, antibody-protein complexes with 500 pM constant concentration of hTrkB-hFc protein were transferred to microtiter plates coated with hBDNF or hNT-4. After one hour incubation at room temperature, the wells were washed, and plate-bound hTrkB-hFc was detected with anti-human Fcγ fragment specific goat polyclonal antibodies conjugated with horseradish peroxidase (JacksonImmunoResearch). The plate was then developed using TMB substrate solution (BD Biosciences) according to manufacturer's recommendation and absorbance at 450 nm was measured on a Victor plate reader (PerkinElmer™).
The ability of anti-TrkB antibodies to block TrkB binding to BDNF or NT-4 was assessed using two competition sandwich ELISAs. Human TrkB-hFc binding to hBDNF or hNT-4 coated on 96-well microtiter plates, in the presence of serially diluted antibodies or no antibody controls, were detected with HRP-conjugated anti-human Fcγ fragment specific goat polyclonal antibodies. IC₅₀ values were calculated and used as the potency indicator of antibody blocking hTrkB-hFc binding to hBDNF or hNT-4. In addition, the maximum blockade of 500 pM hTrkB-hFc with each antibody at the highest tested concentration was calculated and compared.

T4 sequence (chain, as listed by the source limits assumed): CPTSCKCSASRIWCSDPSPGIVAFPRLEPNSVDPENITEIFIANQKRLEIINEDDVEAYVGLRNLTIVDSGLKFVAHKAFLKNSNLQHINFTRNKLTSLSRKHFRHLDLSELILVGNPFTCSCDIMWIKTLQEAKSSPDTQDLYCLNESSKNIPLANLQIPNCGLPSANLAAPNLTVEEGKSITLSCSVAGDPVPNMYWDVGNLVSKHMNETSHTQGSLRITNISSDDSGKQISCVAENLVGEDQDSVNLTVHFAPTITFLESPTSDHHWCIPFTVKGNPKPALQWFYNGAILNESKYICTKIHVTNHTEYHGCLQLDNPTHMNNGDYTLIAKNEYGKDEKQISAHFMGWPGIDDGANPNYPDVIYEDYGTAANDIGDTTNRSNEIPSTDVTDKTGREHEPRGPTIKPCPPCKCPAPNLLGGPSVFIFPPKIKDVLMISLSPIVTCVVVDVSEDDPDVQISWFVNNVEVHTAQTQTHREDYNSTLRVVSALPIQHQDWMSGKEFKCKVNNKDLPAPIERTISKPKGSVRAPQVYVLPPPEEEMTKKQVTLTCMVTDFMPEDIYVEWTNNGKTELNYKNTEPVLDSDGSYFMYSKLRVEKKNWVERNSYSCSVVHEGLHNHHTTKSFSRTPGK
Chain of human TrkB expressed on HEK293/SRE-Luc/hTrkB cells (Q16620 32-822): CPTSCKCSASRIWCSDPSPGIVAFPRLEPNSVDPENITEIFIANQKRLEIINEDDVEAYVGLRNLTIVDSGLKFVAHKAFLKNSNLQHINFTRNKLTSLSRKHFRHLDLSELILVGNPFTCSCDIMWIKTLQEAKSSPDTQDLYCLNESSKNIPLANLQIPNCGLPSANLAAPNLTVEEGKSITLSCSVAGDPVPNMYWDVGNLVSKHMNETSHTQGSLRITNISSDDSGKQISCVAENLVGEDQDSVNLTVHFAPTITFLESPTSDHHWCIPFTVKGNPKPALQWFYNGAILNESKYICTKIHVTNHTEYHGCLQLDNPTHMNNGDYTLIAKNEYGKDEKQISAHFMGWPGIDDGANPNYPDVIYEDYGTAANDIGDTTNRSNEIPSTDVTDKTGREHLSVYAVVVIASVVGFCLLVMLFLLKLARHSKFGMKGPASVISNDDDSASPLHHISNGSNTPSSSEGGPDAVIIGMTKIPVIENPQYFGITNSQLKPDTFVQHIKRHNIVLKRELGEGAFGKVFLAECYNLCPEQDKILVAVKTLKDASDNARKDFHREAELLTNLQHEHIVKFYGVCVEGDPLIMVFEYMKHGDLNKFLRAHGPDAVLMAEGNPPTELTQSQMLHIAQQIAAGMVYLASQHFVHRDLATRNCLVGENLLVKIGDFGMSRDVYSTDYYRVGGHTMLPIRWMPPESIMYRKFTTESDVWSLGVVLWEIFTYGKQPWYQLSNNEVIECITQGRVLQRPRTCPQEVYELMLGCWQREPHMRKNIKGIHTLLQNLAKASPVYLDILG
T2 sequence (Q63604 other isoform, or with tags, fused parts or gaps): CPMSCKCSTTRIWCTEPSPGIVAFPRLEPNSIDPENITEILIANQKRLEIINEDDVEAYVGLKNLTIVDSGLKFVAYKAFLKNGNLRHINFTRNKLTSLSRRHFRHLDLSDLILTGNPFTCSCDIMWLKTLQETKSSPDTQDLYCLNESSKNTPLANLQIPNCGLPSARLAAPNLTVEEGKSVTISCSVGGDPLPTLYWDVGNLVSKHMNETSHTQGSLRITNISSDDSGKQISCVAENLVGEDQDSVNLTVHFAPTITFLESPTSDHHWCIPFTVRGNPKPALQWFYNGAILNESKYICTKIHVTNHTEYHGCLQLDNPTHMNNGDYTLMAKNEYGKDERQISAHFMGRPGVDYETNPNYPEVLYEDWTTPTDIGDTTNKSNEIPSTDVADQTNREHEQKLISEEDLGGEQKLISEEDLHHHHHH
T5 sequence (chain, as listed by the source limits assumed): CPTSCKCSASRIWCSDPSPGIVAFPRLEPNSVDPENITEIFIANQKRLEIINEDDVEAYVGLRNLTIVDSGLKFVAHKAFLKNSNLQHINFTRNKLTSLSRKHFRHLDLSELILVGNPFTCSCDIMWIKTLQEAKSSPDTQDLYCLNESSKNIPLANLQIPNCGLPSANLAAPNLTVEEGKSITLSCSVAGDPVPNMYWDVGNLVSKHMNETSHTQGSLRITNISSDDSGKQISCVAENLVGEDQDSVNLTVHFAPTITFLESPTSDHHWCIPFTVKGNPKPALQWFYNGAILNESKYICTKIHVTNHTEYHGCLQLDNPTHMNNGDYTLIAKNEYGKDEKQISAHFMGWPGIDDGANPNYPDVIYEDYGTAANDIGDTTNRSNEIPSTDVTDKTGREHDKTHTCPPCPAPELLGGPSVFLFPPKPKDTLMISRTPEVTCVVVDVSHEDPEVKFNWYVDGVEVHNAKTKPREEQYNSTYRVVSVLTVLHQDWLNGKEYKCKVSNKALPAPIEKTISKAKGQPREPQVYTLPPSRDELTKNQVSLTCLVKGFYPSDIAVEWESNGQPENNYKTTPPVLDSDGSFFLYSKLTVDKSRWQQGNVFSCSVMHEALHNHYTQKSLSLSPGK
T1 sequence (P15209 other isoform, or with tags, fused parts or gaps): as the sequence (Q63604 other isoform, or with tags, fused parts or gaps) above, with M3T, T9S, T10A, I32V, K63R, G84S, T153M, I185L, T394S counted along it
Chain of mouse TrkB extracellular domain fused to the transmembrane and cytoplasmic domains of human TrkB, expressed … (Q16620 other isoform, or with tags, fused parts or gaps limits assumed, form in doubt): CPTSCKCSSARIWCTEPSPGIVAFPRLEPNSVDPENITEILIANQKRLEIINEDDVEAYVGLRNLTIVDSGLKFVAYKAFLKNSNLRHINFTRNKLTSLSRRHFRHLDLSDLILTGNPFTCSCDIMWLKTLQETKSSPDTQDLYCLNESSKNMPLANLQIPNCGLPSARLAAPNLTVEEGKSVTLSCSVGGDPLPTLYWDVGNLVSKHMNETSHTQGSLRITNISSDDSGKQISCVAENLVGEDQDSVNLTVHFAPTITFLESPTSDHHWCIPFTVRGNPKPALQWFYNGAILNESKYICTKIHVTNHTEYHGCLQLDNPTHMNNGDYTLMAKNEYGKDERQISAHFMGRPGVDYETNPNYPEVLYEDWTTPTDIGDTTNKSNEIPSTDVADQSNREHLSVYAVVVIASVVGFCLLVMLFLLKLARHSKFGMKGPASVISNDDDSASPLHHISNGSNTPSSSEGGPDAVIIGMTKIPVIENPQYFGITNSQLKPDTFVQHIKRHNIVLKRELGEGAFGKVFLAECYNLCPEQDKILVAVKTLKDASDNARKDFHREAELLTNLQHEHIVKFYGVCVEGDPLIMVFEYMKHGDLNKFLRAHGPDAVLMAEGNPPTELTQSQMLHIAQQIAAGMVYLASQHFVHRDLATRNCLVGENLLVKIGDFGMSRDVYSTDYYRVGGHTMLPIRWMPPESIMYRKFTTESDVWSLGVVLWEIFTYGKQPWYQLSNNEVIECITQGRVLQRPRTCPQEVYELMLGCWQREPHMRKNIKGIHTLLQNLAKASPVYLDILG
T3 sequence (Q16620 other isoform, or with tags, fused parts or gaps): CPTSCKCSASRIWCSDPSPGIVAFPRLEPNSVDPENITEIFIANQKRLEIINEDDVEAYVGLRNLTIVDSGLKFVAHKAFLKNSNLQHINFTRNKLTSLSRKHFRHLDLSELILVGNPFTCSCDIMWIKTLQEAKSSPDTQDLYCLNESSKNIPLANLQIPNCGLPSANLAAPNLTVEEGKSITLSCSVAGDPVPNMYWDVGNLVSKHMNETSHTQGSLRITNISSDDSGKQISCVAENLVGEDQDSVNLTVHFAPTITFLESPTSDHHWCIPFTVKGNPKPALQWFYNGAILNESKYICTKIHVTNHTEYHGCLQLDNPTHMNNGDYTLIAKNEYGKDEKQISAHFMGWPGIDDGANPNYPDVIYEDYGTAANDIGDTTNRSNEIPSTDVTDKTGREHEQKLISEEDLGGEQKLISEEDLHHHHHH

Activation (%), SRE-luciferase, 100 pM BDNF [1] [%] | Activation (%), SRE-luciferase, No BDNF [1] [%] | EC50 (M), SRE-luciferase, 100 pM BDNF [1] [M] | EC50 (M), SRE-luciferase, No BDNF [1] [M] | Activation (%), SRE-luciferase, 100 pM BDNF [2] [%] | Activation (%), SRE-luciferase, No BDNF [2] [%] | 100 nM mTrkBmmH Bound (RU) [3] [RU] | 100 nM rTrkB.mmH Bound (RU) [4] [RU] | 100 nM hTrkB.mmH Bound (RU) [5] [RU] | Kd [5] [nM] | koff [5] [s⁻¹] | kon [5] [M⁻¹ s⁻¹] | t½ [5] [min] | 100 nM hTrkB-mFc Bound (RU) [6] [RU] | Kd [6] [nM] | koff [6] [s⁻¹] | kon [6] [M⁻¹ s⁻¹] | t½ [6] [min] | % Blockade with 100 nM antibody [7] [%] | IC50 [7] [nM] | Binder | other results
77 | 88 | 7.6e-11 | 8.2e-11 | 55 | 0 | 1 | 0 | 14 | 63.8 | 0.00364 | 57100 | 3.2 | 14 | 3.33 | 0.000222 | 66500 | 52 | 80 | 0.18 | H4H9780P (antibody, human IgG4 S228P, kappa, V domains shown, Fully human anti-human TrkB agonist antibody, human IgG4 Fc; also called H4H9780P-L1) VH: QVQLVESGGGVVQPGRSLRLSCAASGFSFSSFGMHWVRQAPGKGLEWVSVISYDGINTYYTDSVKGRFTISRDNSKNTLYLQMNGLRAEDTALYYCVQGSIGTVFEYWGQGTLVTVSS VL: DIQMTQSPSSLSASVGDRVTITCRASQGISNYLAWYQQKPGKVPKLLIYAASTLQSGVPSRFGGSGSGTDFTLTISSLQPEDVATYYCQKYTSAPFTFGPGTKVDIKR | –
78 | 90 | 4.5e-11 | 6.3e-11 | 58 | 0 | 0 | 0 | 12 | 70.8 | 0.00374 | 52800 | 3.1 | 14 | 3.46 | 0.00024 | 69500 | 48 | -123 | – | H4H9816P2 (antibody, human IgG4 S228P, kappa, V domains shown, Fully human anti-human TrkB agonist antibody, human IgG4 Fc; also called H4H9816P-L1) VH: EVQLVESGGGLVQPGGSLTLSCAASGFNFRDYEMIWVRQTPGKGLEWISYISNSGYTIYYADSVKGRFTISRDNARNSIYLQVNSLRAEDTAVYYCSRRTTMIRGIRAYYYYGLDVWGQGTTVTVSS VL: not shown | binding result [4]: no binding (tested: 100 nM)
80 | 92 | 4.9e-11 | 3.5e-11 | 54 | 0 | 0 | -1 | 32 | 2.28 | 0.00468 | 2.05e+06 | 2.5 | 42 | 0.0733 | 0.000208 | 2.83e+06 | 56 | 38 | – | H4H9814P (antibody, human IgG4 S228P, kappa, V domains shown, Fully human anti-human TrkB agonist antibody, human IgG4 Fc; also called H4H9814P-L1) VH: EVQLVESGGGLVQPGGSLKLSCTASGFTFSGSVIHWVRQASGKGLEWIGRIRNKANSYATAYGASVTGRFTISRDDSKNTAYLQMNSLKTEDTAVYYCTFPGVVGRGGFDYWGQGTLVTVSS VL: DIVMTQSPDSLAVSLGEGATINCMSSQSVLFSSNNKNYLAWYQQKPGQPPKLLFYWASTRESGVPDRFGGSGSGTDFSLTINSLQTEDVAVYYCLQYYSIPWTFGQGTKVEIKR | –
79 | 78 | 1.1e-10 | 7.6e-11 | 69 | 85 | – | – | – | – | – | – | – | – | – | – | – | – | 95 | 0.045 | H1M8037C (antibody, mouse IgG1, kappa, V domains shown, captured by anti-mFc in SPR; also called Comparator; comparator anti-TrkB monoclonal antibody) VH: QVQLVQSGAEVKKPGASVKVSCKASGYTFTNYDIIWVRQAPGQGLEWMGYINPYNDGTKYNEKFKGRVTMTRDTSTSTVYMELSSLRSEDTAVYYCARLLKYRRFRYYAIDYWGQGTTVTVSS VL: DIQMTQSPSSLSASVGDRVTITCRTSENVYSNLAWYQQKPGKAPKLLIYAASNLQSGVPSRFSGSGSGTDYTFTISSLQPEDIATYYCQHFWGSPFTFGQGTKLEIKR | EC50 (M), SRE-luciferase, 100 pM BDNF [2]: 4.2e-11 M; EC50 (M), SRE-luciferase, No BDNF [2]: 4.3e-11 M
